Measured values taken from patent publication US10357539B2, “Use of peptides that block metadherin-SND1 interaction as treatment for cancer” (THE TRUSTEES OF PRINCETON UNIVERSITY, priority 2014, dated 2019).

T1: MTDH (364-582) (Homo sapiens, UniProt Q86UE4)
T1 construct: made in house; host or cells: E. coli DH5α
T1 sequence (Q86UE4 364-582): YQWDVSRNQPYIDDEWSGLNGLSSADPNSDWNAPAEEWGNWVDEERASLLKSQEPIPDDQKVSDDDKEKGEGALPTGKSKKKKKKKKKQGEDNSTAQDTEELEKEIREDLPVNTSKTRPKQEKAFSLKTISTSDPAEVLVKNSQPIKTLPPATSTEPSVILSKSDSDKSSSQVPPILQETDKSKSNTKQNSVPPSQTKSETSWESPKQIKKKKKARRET

T2: SND1 (Homo sapiens, UniProt Q7KZF4)
T2 construct: 15 μg of His-SND1 (16-339) was added to the resin; made in house; host or cells: E. coli DH5α
T2 sequence (Q7KZF4 16-339): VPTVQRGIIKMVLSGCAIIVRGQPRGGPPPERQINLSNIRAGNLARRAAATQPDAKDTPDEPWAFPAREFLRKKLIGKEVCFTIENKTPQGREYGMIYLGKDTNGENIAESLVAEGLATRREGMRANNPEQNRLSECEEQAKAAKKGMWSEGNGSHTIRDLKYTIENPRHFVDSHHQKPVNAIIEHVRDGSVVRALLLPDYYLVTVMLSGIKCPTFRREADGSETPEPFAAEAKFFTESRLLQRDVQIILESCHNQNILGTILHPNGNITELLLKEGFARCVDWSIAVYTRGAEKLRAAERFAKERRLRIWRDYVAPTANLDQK

T3: SND1 (Homo sapiens, UniProt Q7KZF4)
T3 construct: Full-length HA-tagged SND1 was co-expressed with full-length Myc-tagged wild-type (WT) or mutant MTDH in HEK293T cells; expressed in transfected cells; host or cells: HEK293T
T3 sequence (Q7KZF4 1-910): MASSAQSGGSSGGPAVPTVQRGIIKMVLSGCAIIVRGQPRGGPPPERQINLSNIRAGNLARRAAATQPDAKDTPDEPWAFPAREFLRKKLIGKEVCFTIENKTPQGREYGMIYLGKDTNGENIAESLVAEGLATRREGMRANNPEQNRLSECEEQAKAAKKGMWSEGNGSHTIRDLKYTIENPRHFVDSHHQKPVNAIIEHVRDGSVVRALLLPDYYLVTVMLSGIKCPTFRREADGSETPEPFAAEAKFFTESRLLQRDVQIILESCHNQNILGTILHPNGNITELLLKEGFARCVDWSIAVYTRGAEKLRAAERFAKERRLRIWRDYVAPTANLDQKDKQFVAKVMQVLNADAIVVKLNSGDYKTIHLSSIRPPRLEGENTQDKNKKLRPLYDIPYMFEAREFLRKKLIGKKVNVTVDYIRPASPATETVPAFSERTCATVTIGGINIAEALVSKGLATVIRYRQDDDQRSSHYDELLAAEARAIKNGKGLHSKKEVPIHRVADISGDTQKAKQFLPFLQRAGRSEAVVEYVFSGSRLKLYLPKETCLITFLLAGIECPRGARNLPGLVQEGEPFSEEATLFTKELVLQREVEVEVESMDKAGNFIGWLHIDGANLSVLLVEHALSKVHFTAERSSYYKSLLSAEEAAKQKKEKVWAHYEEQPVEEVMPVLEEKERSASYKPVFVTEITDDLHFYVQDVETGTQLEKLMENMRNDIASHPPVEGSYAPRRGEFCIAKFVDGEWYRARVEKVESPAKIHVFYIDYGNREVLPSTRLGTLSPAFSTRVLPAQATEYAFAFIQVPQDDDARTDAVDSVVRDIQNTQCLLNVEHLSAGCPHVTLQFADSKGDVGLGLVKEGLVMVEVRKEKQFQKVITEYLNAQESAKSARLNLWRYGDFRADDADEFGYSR


Key:
[1] = target: T1, MTDH (364-582); assay: GST-mediated pull-down of SND1 constructs and mutants by GST-tagged MTDH (364-582); assay type: binding; conditions: SND1 mutants in SND1 (16-339)
Text: (§1) (FIG. 22A) In vitro pull-down of SND1 (16-339) by GST-tagged MTDH (364-582) harboring WT or mutant sequence. The proteins bound to GS4B were examined on SDS-PAGE and visualized by Coomassie blue staining. (FIG. 22B) In vitro pull-down of WT and mutant SND1 (16-339) by GST-tagged MTDH (364-582). The bound proteins were examined as in (FIG. 22A). For both (FIG. 22A) and (FIG. 22B), experiments were repeated three times; representative results are shown. The normalized percentage of binding was averaged from three experiments; mean±SEM was shown below the data. (FIG. 22C) HEK293T cells were transfected with human HA-SND1, WT Myc-MTDH or Myc-MTDH with indicated single point mutation. Lysates were immunoprecipitated with anti-Myc antibody and immunoblotted with the indicated antibodies. (FIG. 22D) HEK293T cells were transfected with human Myc-MTDH, WT HA-SND1 or mutant HA-SND1 with indicated single point mutations or deletions. Lysates were immunoprecipitated with anti-Myc and immunoblotted with the indicated antibodies.
(§2) GST-Mediated Pull-Down Assay: ˜20 μg of GST-MTDH (different truncation forms and site mutants) was bound to 10 μl of glutathione resin via GST tag. The resin was washed with 200 μl assay buffer (25 mM Tris, PH8.0, 150 mM NaCl, 3 mM DTT) three times to remove the excess unbound protein. 15 μg of His-SND1 (16-339) was added to the resin in a 100 μl volume suspended in the assay buffer with 2 mg/ml of BSA. The mixture was washed with 200 μl assay buffer twice before examined by SDS-PAGE, and visualized by Coomassie blue staining. The experiments were repeated 3 times and the ratio of SND1 associated with GST-MTDH was analyzed by ImageJ.

[2] = target: T2, SND1; assay: GST-mediated pull-down of SND1 by GST-tagged MTDH fragments and mutants; assay type: binding; conditions: SND1 (16-339); GST-tagged MTDH (364-582)
Text: (§3) FIGS. 7A-E represents determination of key regions and residues mediating the MTDH-SND1 interaction. (FIG. 7A) Schematics of MTDH fragments and mutants with indicated SND1-binding capability. + indicates binding and − indicates no binding based on results shown below. Two putative nuclear localization signals are residues 432-451 for NLS2 and residues 561-580 for NLS3. In the enlarged view of the minimal binding region 386-407, 9 residues were targeted for mutagenesis in the current study. […] (FIG. 7B) Pulldown of His6-SND1AC by GST-tagged MTDH fragments with indicated boundaries. The bound proteins were examined by SDS-PAGE and visualized by Coomassie blue staining. (FIG. 7C) Pulldown of His6-SND1ΔC by GST-tagged WT or triple mutant MTDH fragments (364-582). For (FIG. 7B) and (FIG. 7C), 1/10 of the His6-SND1ΔC input was shown, and GST alone was used as a negative control. Representative results of 3 independent experiments are shown. (FIG. 7D, FIG. 7E) Lysates from HEK293T cells expressing the indicated ectopic human SND1, AGO2 or MTDH were immunoprecipitated with anti-Myc and immunoblotted with the indicated antibodies.
as §1, §2

[3] = target: T3, SND1; assay: Co-immunoprecipitation of full-length Myc-MTDH (WT or mutant) and HA-SND1 in HEK293T cells; assay type: cell-based; conditions: HEK293T cell lysates, immunoprecipitation and immunoblot
Text: as §3, §1
Immunoprecipitation and western blot For immunoprecipitation (IP) experiments, cultured cells were washed in cold PBS and lysed in lysis buffer (20 mM Tris pH 7.4, 0.15 M NaCl, 1 mM EDTA, 1 mM EGTA, 1% Tx-100, 0.0025 M Na2P2O7, 1 mM α-glycerolphosphate, 1 mM Na3VO4, and 1 mM NaF) with an EDTA-free protease inhibitor mixture (Roche Applied Science) and PMSF. Cell lysates were then incubated on ice for 10 min, centrifuged, and precleared by incubating with protein A/G beads (Santa Cruz Biotechnology) for 1 h at 4° C. For IP bead preparation, 30 μl of protein A/G beads were incubated with 5 μg of antibodies for 2 h at 4° C. IPs were carried out for overnight at 4° C., and beads were centrifuged, washed and subsequently boiled for 5 min in SDS protein loading buffer to elute bound protein. IP lysates were subjected to western blotting with indicated antibodies.
Immunoprecipitation and western blot: For in vivo immunoprecipitation (IP) experiments, cultured cells were washed in cold PBS and lysed in lysis buffer (20 mM Tris pH 7.4, 0.15 M NaCl, 1 mM EDTA, 1 mM EGTA, 1% Tx-100, 0.0025 M Na2P2O7, 1 mM β-glycerolphosphate, 1 mM Na3VO4, and 1 mM NaF) with an EDTA-free protease inhibitor mixture (Roche Applied Science) and PMSF. Cell lysates were then incubated on ice for 10 min, centrifuged, and precleared by incubating with protein A/G beads (Santa Cruz Biotechnology) for 1 h at 4° C. For IP bead preparation, 30 μl of protein A/G beads were incubated with 5 μg of antibodies for 2 h at 4° C. IPs were carried out for overnight at 4° C., and beads were centrifuged, washed and subsequently boiled for 5 min in SDS protein loading buffer to elute bound protein. IP lysates were subjected to western blotting with indicated antibodies.

Molecule	MTDH-binding of SND1 domains and mutants, in vitro [1]	SND1-binding of MTDH (364-582) point mutants, in vitro [2]	interaction of full-length MTDH (WT or mutant) with HA-SND1 [3]
SN1/2 domains: SND1 N-terminal SN1/2 domains, amino acids 16-339 of SEQ ID NO: 2 (protein, listed as Homo sapiens) VPTVQRGIIKMVLSGCAIIVRGQPRGGPPPERQINLSNIRAGNLARRAAATQPDAKDTPDEPWAFPAREFLRKKLIGKEVCFTIENKTPQGREYGMIYLGKDTNGENIAESLVAEGLATRREGMRANNPEQNRLSECEEQAKAAKKGMWSEGNGSHTIRDLKYTIENPRHFVDSHHQKPVNAIIEHVRDGSVVRALLLPDYYLVTVMLSGIKCPTFRREADGSETPEPFAAEAKFFTESRLLQRDVQIILESCHNQNILGTILHPNGNITELLLKEGFARCVDWSIAVYTRGAEKLRAAERFAKERRLRIWRDYVAPTANLDQK	bind stoichiometrically with MTDH		
SN3/4-TSN5 domains: SND1 C-terminal SN3/4-TSN5 domains, amino acids 340-885 of SEQ ID NO: 2 (protein, listed as Homo sapiens) DKQFVAKVMQVLNADAIVVKLNSGDYKTIHLSSIRPPRLEGENTQDKNKKLRPLYDIPYMFEAREFLRKKLIGKKVNVTVDYIRPASPATETVPAFSERTCATVTIGGINIAEALVSKGLATVIRYRQDDDQRSSHYDELLAAEARAIKNGKGLHSKKEVPIHRVADISGDTQKAKQFLPFLQRAGRSEAVVEYVFSGSRLKLYLPKETCLITFLLAGIECPRGARNLPGLVQEGEPFSEEATLFTKELVLQREVEVEVESMDKAGNFIGWLHIDGANLSVLLVEHALSKVHFTAERSSYYKSLLSAEEAAKQKKEKVWAHYEEQPVEEVMPVLEEKERSASYKPVFVTEITDDLHFYVQDVETGTQLEKLMENMRNDIASHPPVEGSYAPRRGEFCIAKFVDGEWYRARVEKVESPAKIHVFYIDYGNREVLPSTRLGTLSPAFSTRVLPAQATEYAFAFIQVPQDDDARTDAVDSVVRDIQNTQCLLNVEHLSAGCPHVTLQFADSKGDVGLGLVKEGLVMVEVRKEKQFQKVITEYLNAQESA	barely interact with MTDH		
W401A: MTDH mutant W401A (protein, UniProt Q86UE4 1-582, looked up, variant W401A) Protein LYRIC: MAARSWQDELAQQAEEGSARLREMLSVGLGFLRTELGLDLGLEPKRYPGWVILVGTGALGLLLLFLLGYGWAAACAGARKKRRSPPRKREEAAAVPAAAPDDLALLKNLRSEEQKKKNRKKLSEKPKPNGRTVEVAEGEAVRTPQSVTAKQPPEIDKKNEKSKKNKKKSKSDAKAVQNSSRHDGKEVDEGAWETKISHREKRQQRKRDKVLTDSGSLDSTIPGIENTITVTTEQLTTASFPVGSKKNKGDSHLNVQVSNFKSGKGDSTLQVSSGLNENLTVNGGGWNEKSVKLSSQISAGEEKWNSVSPASAGKRKTEPSAWSQDTGDANTNGKDWGRSWSDRSIFSGIGSTAEPVSQSTTSDYQWDVSRNQPYIDDEWSGLNGLSSADPNSDWNAPAEEAGNWVDEERASLLKSQEPIPDDQKVSDDDKEKGEGALPTGKSKKKKKKKKKQGEDNSTAQDTEELEKEIREDLPVNTSKTRPKQEKAFSLKTISTSDPAEVLVKNSQPIKTLPPATSTEPSVILSKSDSDKSSSQVPPILQETDKSKSNTKQNSVPPSQTKSETSWESPKQIKKKKKARRET		abolished or significantly reduced the interaction	not
D389R: MTDH single point mutant D389R (protein, listed as Homo sapiens) MAARSWQDELAQQAEEGSARLREMLSVGLGFLRTELGLDLGLEPKRYPGWVILVGTGALGLLLLFLLGYGWAAACAGSRKKRRSPPRKREEAAAVPAAAPDDLALLKNLRSEEQKKKNRKKLSEKPKPNGRTVEVAEGEAVRTPQSVTAKQPPEIDKKNEKSKKNKKKSKSDAKAVQNSSRHDGKEVDEGAWETKISHREKRQQRKRDKVLTDSGSLDSTIPGIENTITVTTEQLTTASFPVGSKKNKGDSHLNVQVSNFKSGKGDSTLQVSSGLNENLTVNGGGWNEKSVKLSSQISAGEEKWNSVSPASAGKRKAEPSAWSQDTGDANTNGKDWGRSWSDRSIFSGIGSTAEPVSQSTTSDYQWDVSRNQPYIDDEWSGLNGLSSARPNSDWNAPAEEWGNWVDEERASLLKSQEPIPDDQKVSDDDKEKGEGALPTGKSKKKKKKKKKQGEDNSTAQDTEELEKEIREDLPVNTSKTRPKQEKAFSLKTISTSDPAEVLVKNSQPIKTLPPATSTEPSVILSKSDSDKSSSQVPPILQETDKSKSNTKQNSVPPSQTKSETSWESPKQIKKKKKARRET		barely had any effect	did not affect the interaction
